Consider 1 molecule from patent US20210032294A1, “MODIFIED PlySs2 LYSINS AND USES THEREOF” (CONTRAFECT CORPORATION, priority 2018, published 2021).

In series [1] the test system is MSSA isolates. Put plainly: MIC in CAMHB-HSD against MSSA isolates. Format: cell-based, Staphylococcus aureus. The conditions noted are these: 51 MSSA isolates. As to the method: (§1) In vitro activity of the modified lysin polypeptide pp296 was assessed against a range of 51 MSSA and 51 MRSA isolates in cation-adjusted Mueller Hinton broth supplemented with 25% horse serum and 0.5 mM DTT (CAMHB-HSD) and compared to WT GMP grade PlySs2 (CF-301). CF-301 and pp296 were each diluted into CAMHB-HSD. For each lysin, the dilution series is set up such that, after a two-fold dilution of each well of the plate, the final concentrations contained: 64, 32, 16, 8, 4, 2, 1, 0.5, 0.25, and 0.125 μg/mL. Each lysin was tested in duplicate against each strain. Preparations were incubated overnight. Growth was visualized as a growth button approximately 2 mm in diameter. The highest dilution that yielded ≥80% growth inhibition was called the minimum inhibitory concentration (MIC). The activity of pp296 was very similar, within one 2-fold dilution, to that of CF-301, as shown below in Table 7.

In series [2] the test system is MRSA isolates. Put plainly: MIC in CAMHB-HSD against MRSA isolates. Format: cell-based, Staphylococcus aureus. Particulars: 51 MRSA isolates. On the procedure:
as §1

Series [3] relates to 5 MRSA strains and 5 MSSA strains. Put plainly: Checkerboard synergy assay with daptomycin or vancomycin. The series is classed as cell-based, Staphylococcus aureus. The conditions noted are these: with vancomycin. On the procedure:
Synergy studies with antibiotics suitable for treatment of Gram-positive bacteria, for example, daptomycin (DAP) and vancomycin (VAN), were performed using a checkerboard assay. Fractional inhibitory concentration (FIC) index values were determined for modified lysin polypeptide pp296 and antibiotic combinations against 5 methicillin-sensitive Staphylococcus aureus (MSSA) and 5 methicillin resistant Staphylococcus aureus (MRSA) isolates. An FIC index value of ≤0.5 may be interpreted as strong synergy between the two agents, while a value between 0.5 and 1 may still be considered a synergistic effect. Given that pp296 has four amino acid replacements in the catalytic domain, the ability of pp296 to synergize with antibiotics was unexpected. […] Qualitatively similar results may be anticipated upon performing similar assays using other de-immunized active variants, such as pp55, pp61, pp65, pp400, and pp619, in accordance with the present disclosure.
In another experiment, the ability of modified lysin polypeptide pp296 to synergize with daptomycin and vancomycin was assessed using a checkerboard analysis. FIC (fractional inhibitory concentration) index values were determined for pp296 and antibiotic combinations against 5 MSSA and 5 MRSA isolates. A total of 50 μl of Mueller-Hinton broth (BBL) was distributed into each well of microdilution plates. The first antibiotic of the combination was serially diluted along the ordinate, while the second drug was diluted along the abscissa. An inoculum equal to a 0.5 McFarland turbidity standard was prepared from each S. aureus isolate in MHB. Each microtiter well was inoculated with 100 μl of a bacterial inoculum of 5×10^5 CFU/ml, and the plates were incubated at 37° C. for 18 h under aerobic conditions. The resulting checkerboard contained each combination of two antibiotics, with wells that contained the highest concentration of each antibiotic at opposite corners. […] To quantify the interactions between the antibiotics being tested, the FIC index (the combination of antibiotics that produced the greatest change from the individual antibiotic's MIC) value was calculated for each strain and antibiotic combination as follows:
(A/MICA)+(B/MICB)=FICA+FICB=FIC index,
Checkerboards were generated using combinations of pp296 with either daptomycin or vancomycin against 5 MRSA strains (MW2, JMI-5675, JMI-4408, JMI-6181, and JMI-6182) and 5 MSSA strains (ATCC 29213, JMI-40979, JMI-43257, JMI-41293, and JMI-49315). Synergy was defined as inhibitory activity greater than what would be predicted by adding the two components together.

Series [4] is described as follows: Toxicity screening in mice. Format: in vivo. On the procedure:
Selected modified lysin polypeptides from Table 3 were subjected to further testing as described in more detail in subsequent Examples. […] The same 30 mg/kg dose of PlySs2 caused a 100% incidence of adventitial findings, which is an indication of potential toxicity.

Series [5] concerns 1-day old biofilms formed by MRSA isolates. Put plainly: Minimum Biofilm Eradication Concentration (MBEC), MRSA biofilms. Format: cell-based, Staphylococcus aureus. Particulars: 24 hours treatment. On the procedure:
(§2) In some embodiments, the present modified lysin polypeptides are capable of reducing a biofilm. […] Biofilms are then washed and treated with e.g., a 2-fold dilution series of the lysin in TSBg at e.g., 37° C. for 24 hours. After treatment, wells are washed, air-dried at e.g., 37° C. and stained with e.g., 0.05% crystal violet for 10 minutes. After staining, the biofilms are destained in e.g., 33% acetic acid and the OD600 of e.g., extracted crystal violet is determined. The MBEC of each sample is the minimum lysin concentration required to remove >95% of the biofilm biomass assessed by crystal violet quantitation.
(§3) The anti-biofilm activity of pp296 was determined against 1-day old biofilms formed by 17 MSSA and 20 MRSA isolates in a 96-well broth microdilution format. The Minimum Biofilm Eradication Concentration (MBEC) values for pp296, compared to wild-type PlySs2 (CF-301), were determined by the following standard methodology. Bacteria were suspended in PBS (0.5 McFarland Units), diluted 1:100 in TSBg (66% tryptic soy broth, 0.2% glucose), added as 0.15 mL aliquots to 96-well polystyrene microplates, and incubated for 24 hours at 37° C. Biofilms were then washed and treated with a 2-fold dilution series of CF-301 or pp296 in TSBg at 37° C. for 24 hours. All samples were examined in triplicate. After treatment, wells were washed, air-dried at 37° C., and stained with 0.05% crystal violet for 10 min The loss of biofilm biomass was assessed visually, and crystal violet was quantitated by solubilization in 33% (vol/vol) acetic acid. The optical density of 600 nm (OD600) was determined using a SpectraMax M3 Multimode microplate reader. The MBEC of each sample was the minimum lysin concentration required to remove >95% of the biofilm biomass assessed by crystal violet quantitation.

The subject of series [6] is bacterial inoculum. As to the kind of experiment: Thermal stability: in vitro lytic assay after 30 min heating. Format: cell-based. The conditions noted are these: 30 minutes at 37° C., 128 μg/mL in Tris buffer pH 8.0; CF-301 set at 100. As to the method:
Thermal stability was assessed by incubating the lysin polypeptides at a fixed concentration of 128 μg/mL in Tris buffer pH 8.0 for 30 minutes at various elevated temperatures (within the range of about 30° C. to 60° C.) prior to assessing activity. The samples were then cooled for 2 minutes on ice and activity was then assessed by an in vitro lytic assay by exposing a bacterial inoculum (OD600 ˜0.5-1.2) in Tris buffer to a 2-fold dilution series of each sample (diluted from 128-0.25 μg/mL across the x-axis of a 96 well microtiter plate). The loss of optical density was followed for 15 minute at room temperature, and the specific activity was determined based on the enzyme concentration enabling a 50% loss of optical density at 15 minutes. The enzyme activities of each variant were compared to the wild-type, CF-301 enzyme (GMT-grade PlySs2 protein) to calculate the % of Wild-Type Activity over a range of temperatures.
The thermal stability of wild-type, CF-301 was arbitrarily set at 100. The results for exemplary modified lysin polypeptides are set forth below in Table 5 at a single temperature of 37° C.:
In another experiment, the thermal stability of modified lysin polypeptides was assessed at different temperatures and compared with that of wild-type, CF-301 (set at 100).

Series [7] deals with 1-day old biofilms formed by MSSA isolates. As to the kind of experiment: Minimum Biofilm Eradication Concentration (MBEC), MSSA biofilms. The conditions noted are these: 24 hours treatment. Format: cell-based, Staphylococcus aureus. As to the method: as §2, §3
Series [8] deals with 5 MRSA strains and 5 MSSA strains. Put plainly: Checkerboard synergy assay with daptomycin or vancomycin. The series is classed as cell-based, Staphylococcus aureus. The conditions noted are these: MRSA (JMI-41293) strain.

B1: CF-301: WT GMP grade PlySs2 lysin, SEQ ID NO: 1 (protein, listed as Streptococcus suis)
chain: MTTVNEALNNVRAQVGSGVSVGNGECYALASWYERMISPDATVGLGAGVGWVSGAIGDTISAKNIGSSYNWQANGWTVSTSGPFKAGQIVTLGATPGNPYGHVVIVEAVDGDRLTILEQNYGGKRYPVRNYYSAASYRQQVVHYITPPGTVAQSAPNLAGSRSYRETGTMTVTVDALNVRRAPNTSGEIVAVYKRGESFDYDTVIIDVNGYVWVSYIGGSGKRNYVATGATKDGKRFGNAWGTFK
One may read the MIC50 as the lowest concentration that inhibits either 50% of growth or 50% of the strains tested, depending on the study. The MIC90 is an inhibitory concentration at the 90% level, which refers to growth in some studies and to a panel of isolates in others. Higher therefore signals weaker potency. For B1, the MIC50 in series [1] and in series [2] was 0.5 µg/mL throughout. For the same molecule, the results for the MIC90 in series [1] and in series [2] were 1 µg/mL and 0.5 µg/mL, respectively. For the same molecule, the “MIC Range” value in series [1] is 0.5 to 1 µg/mL; in series [2], 0.12 to 1 µg/mL. Besides, the FIC index in series [3] (MRSA JMI-6182), in series [3] (MSSA ATCC 29213), in series [3] (MSSA strain JMI-40979), in series [3] (against 6 of the 10 strains examined) and in series [8] was 0.5 in each case. For the same molecule, the “Kidney findings (renal changes)” value in series [4] is listed as “did not result in kidney findings”. The “Adventitial findings (lesions)” value in series [4] (30 mg/kg) is recorded as “all mice”. In series [4] (30 mg/kg), the “Incidence of adventitial findings” value came to 100%. Besides, the MBEC50 in series [5] and in series [7] was 0.125 µg/mL each time. Further, the MBEC90 in series [5] and in series [7] was 0.125 µg/mL each time. The “MBEC Range” value lay within 0.125 to 0.25 µg/mL in series [5] and 0.125 to 0.5 µg/mL in series [7]. Moreover, in series [6], the “% Wild-Type Activity at 37° C.” value amounted to 100%.
